Changes are numbered by the printed parent chain. Values belong to the molecule of their own block, whether it stands above or below them.
What was measured:
[1] = biological target: T1, recombinant human GM-CSF (Peprotech) (human, UniProt P04141 18-144); assay: SPR (BIAcore); recombinant human GM-CSF coated on CM5 chip, antibody injected at 66.7-4.17 nM
Protocol: The binding kinetics of the 4K21 monoclonal antibody was determined using a Biacore and compared with the binding kinetics for a commercially available rat anti-human GM-CSF antibody from BD Biosciences (BD; Cat No. 554501) (see Table 1 below). Recombinant human GM-CSF was coated onto a CM5 chip to determine the binding kinetics of the 4K21 antibody. An uncoated flow cell was used as a reference. The antibody, prepared in HBS-EP at concentrations of 66.7 nM to 4.17 nM with 2-fold serial dilution, was injected for 2 minutes with a stabilisation time of 10 minutes and dissociation time of 15 minutes. The BIACore kinetic analysis wizard was run to determine each antibody's association (ka [1/Ms]), dissociation (kd[1/s]) and affinity (KD [nM]) to GM-CSF.

[2] = biological target: T1, recombinant human GM-CSF (Peprotech); assay: SPR (BIAcore); recombinant human GM-CSF coupled to CM5 chip, antibody injected at 66.7-4.17 nM
Protocol: A second experiment was performed to determine the kinetics with which these antibodies bind to human GM-CSF. A range of antibody concentration was prepared in HBS-EP from 66.7 nM to 4.17 nM with 2-fold serial dilution. Again direct binding was quantitated using recombinant GM-CSF coupled to a CM5 chip—an uncoated flow cell was used as a reference. The antibody at each concentration was injected for 2 minutes with a stabilisation time of 10 minutes and dissociation time of 15 minutes. The BIACore kinetic analysis wizard was run to determine each antibody's association (ka [1/Ms]), dissociation (kd[1/s]) and affinity (KD [nM]) to GM-CSF.

[3] = biological target: T1, recombinant human GM-CSF (Peprotech); assay: cell-based or functional assay
[4] = biological target: T1, recombinant human GM-CSF (Peprotech); assay: BIAcore, recombinant human GM-CSF amine-coupled to a CM5 chip, antibody at 1 ug/ml injected for 3 min
Protocol: The binding affinity of the humanized antibodies was determined by BIACore analysis. Recombinant GM-CSF (Peprotech) at 100 μg/ml was prepared in sodium acetate, pH5, and immobilised to a CM5 sensor chip by amine coupling. Approximately 1200RU bound to the chip. The first experiment was to determine the binding activity of 15 humanized antibodies. These antibodies were prepared in HBS-EP at 1 μg/ml, injected for 3 minutes and compared to murine 4K21 and a commercially available anti GM-CSF antibody (BD).

T1 sequence (P04141 18-144 limits assumed): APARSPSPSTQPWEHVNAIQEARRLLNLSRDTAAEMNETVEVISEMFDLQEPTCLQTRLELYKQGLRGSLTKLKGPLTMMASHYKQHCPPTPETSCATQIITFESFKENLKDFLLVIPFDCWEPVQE

Molecule: commercially available rat anti-human GM-CSF antibody from BD Biosciences (Cat No. 554501)
Ka [1]: > 5.2e+09 M⁻¹ | Kd [1]: < 0.19 nM | koff [1]: < 1e-05 s⁻¹ | kon [1]: 52000 M⁻¹ s⁻¹ | Ka [2]: > 5.2e+09 M⁻¹ | Kd [2]: < 0.19 nM | koff [2]: < 1e-05 s⁻¹ | kon [2]: 52000 M⁻¹ s⁻¹

B2: hGM4/11 (antibody, V domains shown)
VH: QVQLQESGGGLVKPGGSLKLSCAASGFAFSAYDMSWVRQTPDKRLEWVAYISSGGSSFYYPDTVKGRFTISRDNAKNTLYLQMSSLKSEDTAMYYCARHLGFDYWGQGTMVTVSS
VL: DVVMTQSPLSLPVTPGEPASISCRSSQSLVNSNGNTYLHWYLQKPGQSPQLLIYKVSNRFSGVPDRFSGSGSGTDFTLKISRVEAEDVGVYYCSQSTHVPPTFGGGTKVEIK
EC50, TF-1 cell growth (3H-thymidine) with GM-CSF [3]: 5.13 nM

B7: hGM4/34 (antibody, V domains shown)
VH: B2 VH with W47L, A97T
VL: B2 VL
EC50, TF-1 cell growth (3H-thymidine) with GM-CSF [3]: 0.22 nM

B8: hGM4/2 (antibody, V domains shown)
VH: EVQLVESGGGLVQPGGSLRLSCAASGFAFSAYDMSWVRQAPGKGLEWVSYISSGGSSFYYPDTVKGRFTISRDNAKNSLYLQMNSLRAEDTAVYYCARHLGFDYWGQGTLVTVSS
VL: B2 VL with P15L, E17Q, Y41F, L42Q, K44R, Q50R, L51R
notes: Heavy h4/20 with human gamma 1 constant (hG1), light h4a with human kappa constant (hKa); also called h4K21-2
Ka [2]: 3.5e+09 M⁻¹ | Kd [2]: 0.29 nM | koff [2]: 4.7e-05 s⁻¹ | kon [2]: 160000 M⁻¹ s⁻¹

B9: hGM4/3 (antibody, V domains shown)
VH: B8 VH with A23S, S49A, Y80F, N84S, L110T
VL: B2 VL with P15L, E17Q, Y41F, L42Q, K44R, Q50R, L51R
notes: Heavy h4/30 with human gamma 1 constant (hG1), light h4a with human kappa constant (hKa); also called h4K21-3; 4K21-3
Ka [2]: 7.1e+09 M⁻¹ | Kd [2]: 0.14 nM | koff [2]: 3e-05 s⁻¹ | kon [2]: 210000 M⁻¹ s⁻¹

B11: hGM4/12 (antibody, V domains shown)
VH: B8 VH
VL: B2 VL
notes: Heavy h4/20 with human gamma 1 constant (hG1), light h4c with human kappa constant (hKa); also called h4K21-12
binding result [4]: binds

B13: hGM4/15 (antibody, V domains shown)
VH: B8 VH with Q13K, P14S, R19T, V37I, R87K, A88D
VL: B2 VL
notes: Heavy h4/50 with human gamma 1 constant (hG1), light h4c with human kappa constant (hKa); also called h4K21-15
binding result [4]: binds

B14: hGM4/14 (antibody, V domains shown)
VH: B8 VH with S17F, E46V, S78T, V93M, A97T, R98F, L110T
VL: B2 VL
notes: also called h4K21-14; humanised 4K21-14
binding result [4]: no binding (tested: 1 ug/ml)

The remaining lines, values ahead:

EC50, TF-1 cell growth (3H-thymidine) with GM-CSF [3]: 0.311 nM | Ka [1]: > 5.9e+09 M⁻¹ | Kd [1]: < 0.17 nM | koff [1]: < 1e-05 s⁻¹ | kon [1]: 59000 M⁻¹ s⁻¹ | Ka [2]: > 5.9e+09 M⁻¹ | Kd [2]: < 0.17 nM | koff [2]: < 1e-05 s⁻¹ | kon [2]: 59000 M⁻¹ s⁻¹
B1: murine monoclonal antibody 4K21-O11-E14 (antibody, V domains shown)
VH: B2 VH with Q1E, Q5V, P14S, D42E, W47L, A97T, M110T, V111L
VL: B2 VL with S7T, T14S, P15L, E17D, P18Q, Y41F, Q50K, V88L, Y92F, V109L
notes: Murine hybridoma antibody (ECACC 07051601); also called 4K21-O11-E14 (mouse); mAb 4K21

Ka [2]: 7.7e+09 M⁻¹ | Kd [2]: 0.13 nM | koff [2]: 3.8e-05 s⁻¹ | kon [2]: 290000 M⁻¹ s⁻¹
B3: hGM4/1 (antibody, V domains shown)
VH: B2 VH
VL: B2 VL with P15L, E17Q, Y41F, L42Q, K44R, Q50R, L51R
notes: Heavy h4/10 with human gamma 1 constant (hG1), light h4a with human kappa constant (hKa); also called h4K21-1; 4K21-1

Ka [2]: 1.2e+10 M⁻¹ | Kd [2]: 0.081 nM | koff [2]: 1.6e-05 s⁻¹ | kon [2]: 200000 M⁻¹ s⁻¹
B4: hGM4/6 (antibody, V domains shown)
VH: B2 VH
VL: B2 VL with P15L, E17Q, Y41F, L42Q, K44R, Q50R, L51R, G105Q, V109L
notes: Heavy h4/10 with human gamma 1 constant (hG1), light h4b with human kappa constant (hKa); also called h4K21-6

EC50, TF-1 cell growth (3H-thymidine) with GM-CSF [3]: 1.19 nM
B5: hGM4/21 (antibody, V domains shown)
VH: B2 VH with W47L
VL: B2 VL

EC50, TF-1 cell growth (3H-thymidine) with GM-CSF [3]: 2.12 nM
B6: hGM4/22 (antibody, V domains shown)
VH: B2 VH with A97T
VL: B2 VL

Ka [2]: 7.6e+09 M⁻¹ | Kd [2]: 0.13 nM | koff [2]: 1.9e-05 s⁻¹ | kon [2]: 140000 M⁻¹ s⁻¹
B10: hGM4/5 (antibody, V domains shown)
VH: B8 VH with Q13K, P14S, R19T, V37I, R87K, A88D
VL: B2 VL with P15L, E17Q, Y41F, L42Q, K44R, Q50R, L51R
notes: Heavy h4/50 with human gamma 1 constant (hG1), light h4a with human kappa constant (hKa); also called h4K21-5

binding result [4]: binds
B12: hGM4/13 (antibody, V domains shown)
VH: B8 VH with A23S, S49A, Y80F, N84S, L110T
VL: B2 VL
notes: Heavy h4/30 with human gamma 1 constant (hG1), light h4c with human kappa constant (hKa); also called h4K21-13
